In this assay the target is T1, [FeFe]-hydrogenase CaHydA from Clostridium acetobutylicum (Clostridium acetobutylicum) (UniProt Q59262).
T1 sequence: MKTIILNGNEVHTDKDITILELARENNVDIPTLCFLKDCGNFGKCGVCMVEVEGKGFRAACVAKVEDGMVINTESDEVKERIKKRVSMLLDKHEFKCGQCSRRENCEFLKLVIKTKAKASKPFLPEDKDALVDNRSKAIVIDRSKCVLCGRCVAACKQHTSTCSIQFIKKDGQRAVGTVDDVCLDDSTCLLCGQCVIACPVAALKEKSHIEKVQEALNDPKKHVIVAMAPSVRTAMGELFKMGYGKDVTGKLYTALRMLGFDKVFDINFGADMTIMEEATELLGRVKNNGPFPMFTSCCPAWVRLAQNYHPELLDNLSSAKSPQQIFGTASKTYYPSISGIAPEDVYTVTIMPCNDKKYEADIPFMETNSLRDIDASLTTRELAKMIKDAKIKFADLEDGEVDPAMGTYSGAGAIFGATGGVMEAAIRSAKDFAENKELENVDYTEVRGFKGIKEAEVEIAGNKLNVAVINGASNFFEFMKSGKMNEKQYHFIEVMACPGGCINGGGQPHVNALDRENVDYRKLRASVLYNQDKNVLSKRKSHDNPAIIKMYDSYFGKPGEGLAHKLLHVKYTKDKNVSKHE

Ac-GCGGGCGGCGGCGY-NH2 (also: [4Fe4S] cluster coordinated by the four Cys) [[4Fe4S]-peptide maquette Mq5 (Ac-…-NH2)] returned a turnover frequency (TOF) of electron transfer from CaHydA to the Mq5 cluster in H2 oxidation, assuming cluster concentration equal to the peptide concentration of 79 s⁻¹ and a turnover frequency (TOF) of electron transfer from CaHydA to the Mq5 cluster in H2 oxidation, corrected for about 40 % cluster formation relative to FdM1 of 31 s⁻¹.

The record behind these values is paper PMC10946529.
